Experiment [1] deals with human fibrinogen (human) (UniProt P02671). As to the kind of experiment: cell-based or functional assay.
Experiment [2] deals with T1, human fibrinogen (human, UniProt P02671 20-629; P02675 31-491; P02679 27-437, limits assumed).
T1 construct: also called purified human fibrinogen
T1 sequence (looked up) 1: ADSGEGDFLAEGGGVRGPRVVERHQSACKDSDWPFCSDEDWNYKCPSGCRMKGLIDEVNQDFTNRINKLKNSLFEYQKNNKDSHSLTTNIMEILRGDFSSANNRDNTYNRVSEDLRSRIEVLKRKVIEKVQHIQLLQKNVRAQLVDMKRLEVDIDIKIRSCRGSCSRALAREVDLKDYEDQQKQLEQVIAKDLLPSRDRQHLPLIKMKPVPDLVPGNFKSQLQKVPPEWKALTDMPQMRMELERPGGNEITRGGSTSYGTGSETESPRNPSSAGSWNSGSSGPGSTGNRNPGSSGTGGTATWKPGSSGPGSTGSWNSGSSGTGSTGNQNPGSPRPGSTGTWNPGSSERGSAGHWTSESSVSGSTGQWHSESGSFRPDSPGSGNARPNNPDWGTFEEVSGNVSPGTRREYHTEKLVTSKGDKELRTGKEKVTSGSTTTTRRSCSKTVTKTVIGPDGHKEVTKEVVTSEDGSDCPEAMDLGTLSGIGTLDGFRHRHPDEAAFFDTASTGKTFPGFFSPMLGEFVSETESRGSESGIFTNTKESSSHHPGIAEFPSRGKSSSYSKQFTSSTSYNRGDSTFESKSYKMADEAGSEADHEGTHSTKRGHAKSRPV
T1 sequence (looked up) 2: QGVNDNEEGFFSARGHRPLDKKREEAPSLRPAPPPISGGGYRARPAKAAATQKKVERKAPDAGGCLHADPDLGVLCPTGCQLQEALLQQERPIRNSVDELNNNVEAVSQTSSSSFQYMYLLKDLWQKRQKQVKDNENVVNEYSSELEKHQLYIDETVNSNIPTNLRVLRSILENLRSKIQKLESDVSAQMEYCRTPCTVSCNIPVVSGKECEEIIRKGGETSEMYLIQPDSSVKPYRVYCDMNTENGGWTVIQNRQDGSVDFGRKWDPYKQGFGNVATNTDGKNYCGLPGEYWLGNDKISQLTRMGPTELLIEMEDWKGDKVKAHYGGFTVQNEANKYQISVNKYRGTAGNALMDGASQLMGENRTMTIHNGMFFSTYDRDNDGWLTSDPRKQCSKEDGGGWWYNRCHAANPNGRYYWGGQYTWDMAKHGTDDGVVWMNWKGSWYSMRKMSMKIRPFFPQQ
T1 sequence (looked up) 3: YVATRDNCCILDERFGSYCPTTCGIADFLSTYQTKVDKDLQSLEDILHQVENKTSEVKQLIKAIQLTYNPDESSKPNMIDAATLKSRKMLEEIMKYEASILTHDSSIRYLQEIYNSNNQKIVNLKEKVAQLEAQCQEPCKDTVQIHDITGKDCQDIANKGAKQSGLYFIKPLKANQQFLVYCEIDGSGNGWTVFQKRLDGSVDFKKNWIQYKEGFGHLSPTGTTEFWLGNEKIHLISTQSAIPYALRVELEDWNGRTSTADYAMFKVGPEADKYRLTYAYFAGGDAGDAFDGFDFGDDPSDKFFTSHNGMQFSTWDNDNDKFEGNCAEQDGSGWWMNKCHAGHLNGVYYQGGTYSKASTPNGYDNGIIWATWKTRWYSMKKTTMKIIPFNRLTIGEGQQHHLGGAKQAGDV
As to the kind of experiment: flow cytometry; peptide-albumin microparticles incubated with fluorescent fibrinogen.

From US20150071985A1 (HAEMOSTATIX, published 2015) come the findings set out here.

Where no end group is shown, it is not given here.

On to “PeproStat (GPRPG-PEG12-maleimide conjugated to thiolated human serum albumin) (from UniProt P02768 25-609)”, for which the Clotting activity (time to clot formation, Sigma Amelung KC4 coagulometer; 30 µL sample at 0.5 mg/ml added to 100 µL purified human fibrinogen at 3 mg/ml) in experiment [1] is under 6 s.

B1: GPRPG peptide conjugated to albumin microparticles (peptide)
peptide: GPRPG
modifications: also: conjugated to albumin microparticles, linker and chemistry not given here
notes: Surrogate of PeproStat for the flow cytometry test; also called the particles; not shown: The albumin microparticle carrier
B1: in experiment [2], the binding result is recorded as “binds”.
